Source: patent publication US20240182547A1 (MOGAM INSTITUTE FOR BIOMEDICAL RESEARCH, published 2024)

Target: DS-Cav1 (RSV F-protein, pre-form, in-house) (respiratory syncytial virus (RSV), UniProt P03420 26-513)
Test: ELISA, coated DS-Cav1, IgG titrated

Sequence of DS-Cav1 (RSV F-protein, pre-form, in-house) (P03420 26-524): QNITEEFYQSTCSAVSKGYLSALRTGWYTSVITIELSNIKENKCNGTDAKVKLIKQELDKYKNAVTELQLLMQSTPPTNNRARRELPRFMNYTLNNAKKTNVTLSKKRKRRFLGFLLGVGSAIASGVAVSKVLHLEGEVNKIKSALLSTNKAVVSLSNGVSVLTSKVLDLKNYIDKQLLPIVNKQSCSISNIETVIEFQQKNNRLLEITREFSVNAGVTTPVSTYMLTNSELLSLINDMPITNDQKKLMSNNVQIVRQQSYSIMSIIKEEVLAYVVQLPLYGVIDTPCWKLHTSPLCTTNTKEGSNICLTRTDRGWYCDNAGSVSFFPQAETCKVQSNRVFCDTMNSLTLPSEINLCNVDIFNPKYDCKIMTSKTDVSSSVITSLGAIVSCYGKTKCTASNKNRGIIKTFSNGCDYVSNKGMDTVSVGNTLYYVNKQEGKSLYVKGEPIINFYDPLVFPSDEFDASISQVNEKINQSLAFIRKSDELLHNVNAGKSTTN

B1: #18m (antibody, V domains shown)
VH: EVQLVESGGGLVKPGGSLRLSCAASGFTFTSYRMHWVRQAPGKGLEWVSSITGGGNYIEYADSVKGRFTISRDNAKNSLDLQMNSLRAEDTAIYYCARDMYGLGSYYSPNYFDPWGQGTLVTVSS
VL: QSVLTQPLSVSGAPGQRVTISCTGSSSNIGAGYDVHWYQQVPGTAPKLLIFGSTNRPSGVPDRFSGSKSGASASLAITGLQADDEADYYCQSYDRSLSHVFGTGTKVTVL
notes: Germline-edited (m) form of 2H9, heavy and light chain edited; IgG; also called 2H9 (modified)
Kd: ~1.84 nM

B2: 2G4 (antibody, V domains shown)
VH: EVQLVESGGGLVKPGGSLRLSCAASGFTFSSYTMHWVRQAPGKGLEWVSSITGGSSYVDYSASVKGRFTISRDNAQSSLYLQMNSLRAEDTAVYYCARDDYGSGSYSNWFDPWGQGTLVTVSS
VL: QSVLTQPPSVSGAPGQRVTISCTGSSSNIGAGYDVHWYQQVPGTAPKLLIFGSTNRPSGVPDRFSGSKSGTSASLAITGLQADDEADYYCQSYDRSLSHVFGTGTKVTVLG
notes: IgG made in Expi293; also called #1
Kd: ~1.01 nM

B3: 12B11 (antibody, V domains shown)
VH: EVQLVESGGGVVQPGRSLRLACAASGFTFNSYAMHWVRQAPGKGLEWVSSITGGSSYVDYSASVKGRFTISRDNAQSSLYLQMNSLRAEDTAVYYCARDMYGLGSYYSPNYFDPWGQGTLVTVSS
VL: SYELTQPPSVSGAPGQRVTISCTGSSSNIGAGYDVHWYQQLPGRAPKLLIFANTNRPSGVPDRFSGSKSGTSASLAITGLQAEDEADYYCQSYDSSLSYVFGTGTKVTVLG
notes: IgG made in Expi293; also called #15; 15
Kd: ~0.72 nM

B4: 2E9 (antibody, V domains shown)
VH: QVTLKESGGGLVKPGGSLRLSCAGSGFTFSSYTMHWVRQAPGKGLEWVSSITGGSSYVDYSASVKGRFTISRDNAKNSLFLQMNSLRAEDTAVYYCARDDYGSGSYSNWFDPWGQGTLVTVSS
VL: QSVLTQPPSVSGAPGQRVTISCTGSSSNIGAGYDVHWYQQLPGRAPKLLIFANTNRPSGVPDRFSGSKSGASASLAITGLQADDEADYYCQSYDRSLSHVFGTGTKVTVLG
notes: IgG made in Expi293; also called #14; 14
Kd: ~0.48 nM

B5: #12m (antibody, V domains shown)
VH: EVQLVESGGGLVKPGGSLRLSCAGSGFAFSSYTMHWVRQAPGKGLEWVSSITGGSSYLDYAHSVKGRFTISRDNGQNSLFLQMNSLRTEDTAVYYCARDDYGSGSYSNYFDPWGQGTLVTVSS
VL: QSVLTQPPSVSGAPGQRVTISCTGSSSNIGAGYDVHWYQQVPGTAPKLLIFGSTNRPSGVPDRFSGSKSGASASLAITGLQTEDEADYYCQSYDRSLSHVFGTGTKVTVLG
notes: Germline-edited (m) form of 4F11, light chain edited; IgG; also called 4F11 (modified)
Kd: ~1.82 nM

B6: 2H1 (antibody, V domains shown)
VH: QVTLKESGGGVVQSGRSLRLSCAASGFTFSSYTMHWVRQAPGKGLEWVSSITGGSSYVDYSASVKGRFTISRDNAQSSLYLQMNSLRAEDTAVYYCARDDYGSGSYSNWFDPWGQGTLVTVSS
VL: QSVLTQPPSVSGAPGQRVTISCTGSSSNIGAGYDVHWYQQLPGRAPKLLIYANTNRPSGVADRFSGSKSGASASLAITGLQADDEADYYCQSYDRSLSHVFGTGTKVTVLG
notes: IgG made in Expi293; also called #9
Kd: ~1.95 nM

B7: 2H9 (antibody, V domains shown)
VH: QVTLKESGGGLVKPGGSLRLSCAASGFTFTSYRMHWVRQAPGKGLEWVSSITGGGNYIEYADSVKGRFTISRDNAKNSLDLQMNSLRAEDTAIYYCARDMYGLGSYYSPNYFDPWGQGTLVTVSS
VL: SYELTQPLSVSGAPGQRVTISCTGSSSNIGAGYDVHWYQQVPGTAPKLLIFGSTNRPSGVPDRFSGSKSGASASLAITGLQADDEADYYCQSYDRSLSHVFGTGTKVTVLG
notes: IgG made in Expi293; also called #18; 18
Kd: ~0.38 nM

B8: 4E1 (antibody, V domains shown)
VH: EVQLVESGGGLVQPGGSLRLACAASGFTFSSYTMHWVRQAPGKGLEWVSSITGGSSYVDYSASVKGRFTISRDNAQSSLYLQMNSLRAEDTAVYYCARDDYGSGSYSNWFDPWGQGTLVTVSS
VL: SYELTQPPSVSGAPGQRVTISCTGSSSNIGAGYDVHWYQQLPGRAPKLLIFANTNRPSGVPDRFSGSKSGASASLAITGLQAEDEADYYCQSYDRSLSHVFGTGTKVTVLG
notes: IgG made in Expi293; also called #17; 17
Kd: ~0.56 nM

B9: 4G4 (antibody, V domains shown)
VH: EVQLVESGGGLVKPGGSLRLSCAGSGFTFSSYTMHWVRQAPGKGLEWVSSITGGSSYVDYSASVKGRFTISRDNAQSSLYLQMNSLRAEDTAVYYCARDDYGSGSYSNWFDPWGQGTLVTVSS
VL: QSVLTQPPSVSGAPGQRVTISCTGNSSNLGAGYDVHWYQQLPGTAPKLLIYANTNRPSGVPDRFSGSKSGASASLAITGLQTEDEADYYCQSYDRSLSHVFGTGTKVTVLG
notes: IgG made in Expi293; also called #10; 10
Kd: ~0.38 nM

B10: 4F11 (antibody, V domains shown)
VH: EVQLVESGGGLVKPGGSLRLSCAGSGFAFSSYTMHWVRQAPGKGLEWVSSITGGSSYLDYAHSVKGRFTISRDNGQNSLFLQMNSLRTEDTAVYYCARDDYGSGSYSNYFDPWGQGTLVTVSS
VL: QPVLTQPPSVSGAPGQRVTISCTGSSSNIGAGYDVHWYQQVPGTAPKLLIFGSTNRPSGVPDRFSGSKSGASASLAITGLQTEDEADYYCQSYDRSLSHVFGTGTKVTVLG
notes: IgG made in Expi293; also called #12; 12
Kd: ~0.43 nM

B11: 3H8 (antibody, V domains shown)
VH: EVQLVESGGGLVKPGGSLRLSCAGSGFTFSSYTMHWVRQAPGKGLEWVSSITGGSSYVDYSASVKGRFTISRDNAQSSLYLQMNSLRAEDTAVYYCARDDYGSGSYSNWFDPWGRGTTVTVSS
VL: QPVLTQPLSASGTPGQRVTISCTGSSSNIGAGYDVHWYQQLPGRAPKLLIFANTNRPSGVPDRFSGSKSGTSASLAITGLQAEDEADYYCQSYDRSLSHVFGTGTKVTVLG
notes: IgG made in Expi293; also called #16; 16
Kd: ~0.51 nM

B12: 3E10 (antibody, V domains shown)
VH: EVQLVESGGGLVKPGGSLRLSCAASGFTFTSYRMHWVRQAPGKGLEWVSSITGGGNYIEYADSVKGRFTISRDNAKNSLDLQMNSLRAEDTAIYYCARDMYGLGSYYSPNYFDPWGQGTLVTVSS
VL: QPVLTQPPSVSGAPGQRVTISCTGSSSNIGAGYDVHWYQQVPGTAPKLLIFGSTNRPSGVPDRFSGSKSGASASLAITGLQTEDEADYYCQSYDRSLSHVFGTGTKVTVLG
notes: IgG made in Expi293; also called #20; 20
Kd: ~0.52 nM

B13: 2H3 (antibody, V domains shown)
VH: EVQLVESGGGVVQSGRSLRLSCAGSGFTFSSYTMHWVRQAPGKGLEWVSSITGGSSYVDYSASVKGRFTISRDNAQSSLYLQMNSLRAEDTAVYYCARDDYGSGSYSNWFDPWGQGTLVTVSS
VL: QSVLTQPPSVSGAPGQRVTISCTGSSSNIGAGYDVHWYQQVPGTAPKLLIFGSTNRPSGVPDRFSGSKSGASASLAITGLQTEDEADYYCQSYDRSLSHVFGTGTKVTVLG
notes: IgG made in Expi293; also called 2F5; #65
Kd: ~0.98 nM

B14: #11m (antibody, V domains shown)
VH: EVQLVESGGGLVKPGGSLRLSCAASGFTFTSYRMHWVRQAPGKGLEWVSSITGGGNYIEYADSVKGRFTISRDNAQSSLYLQMNSLRAEDTAVYYCARDDYGSGSYSNWFDPWGQGTLVTVSS
VL: QSVLTQPPSVSGAPGQRVTISCTGSSSNIGAGYDVHWYQQLPGRAPKLLIFANTNRPSGVPDRFSGSKSGASASLAITGLQADDEADYYCQSYDRSLSHVFGTGTKVTVLG
notes: Germline-edited (m) form of 12E9, light chain edited; IgG; also called 12E9 (modified)
Kd: ~2.01 nM

B15: #17m (antibody, V domains shown)
VH: EVQLVESGGGLVQPGGSLRLACAASGFTFSSYTMHWVRQAPGKGLEWVSSITGGSSYVDYSASVKGRFTISRDNAQSSLYLQMNSLRAEDTAVYYCARDDYGSGSYSNWFDPWGQGTLVTVSS
VL: QSVLTQPPSVSGAPGQRVTISCTGSSSNIGAGYDVHWYQQLPGRAPKLLIFANTNRPSGVPDRFSGSKSGASASLAITGLQAEDEADYYCQSYDRSLSHVFGTGTKVTVLG
notes: Germline-edited (m) form of 4E1, light chain edited; IgG; also called 4E1 (modified)
Kd: ~1.13 nM

B16: 12E9 (antibody, V domains shown)
VH: EVQLVESGGGLVKPGGSLRLSCAASGFTFTSYRMHWVRQAPGKGLEWVSSITGGGNYIEYADSVKGRFTISRDNAQSSLYLQMNSLRAEDTAVYYCARDDYGSGSYSNWFDPWGQGTLVTVSS
VL: QTVVTQEPSVSGAPGQRVTISCTGSSSNIGAGYDVHWYQQLPGRAPKLLIFANTNRPSGVPDRFSGSKSGASASLAITGLQADDEADYYCQSYDRSLSHVFGTGTKVTVLG
notes: IgG made in Expi293; also called #11; 11
Kd: ~0.57 nM

B17: #16m (antibody, V domains shown)
VH: EVQLVESGGGLVKPGGSLRLSCAGSGFTFSSYTMHWVRQAPGKGLEWVSSITGGSSYVDYSASVKGRFTISRDNAQSSLYLQMNSLRAEDTAVYYCARDDYGSGSYSNWFDPWGRGTTVTVSS
VL: QSVLTQPLSASGTPGQRVTISCTGSSSNIGAGYDVHWYQQLPGRAPKLLIFANTNRPSGVPDRFSGSKSGTSASLAITGLQAEDEADYYCQSYDRSLSHVFGTGTKVTVLG
notes: Germline-edited (m) form of 3H8, light chain edited; IgG; also called 3H8 (modified)
Kd: ~0.97 nM

B18: #15m (antibody, V domains shown)
VH: EVQLVESGGGVVQPGRSLRLACAASGFTFNSYAMHWVRQAPGKGLEWVSSITGGSSYVDYSASVKGRFTISRDNAQSSLYLQMNSLRAEDTAVYYCARDMYGLGSYYSPNYFDPWGQGTLVTVSS
VL: QSVLTQPPSVSGAPGQRVTISCTGSSSNIGAGYDVHWYQQLPGRAPKLLIFANTNRPSGVPDRFSGSKSGTSASLAITGLQAEDEADYYCQSYDSSLSYVFGTGTKVTVLG
notes: Germline-edited (m) form of 12B11, light chain edited; IgG; also called 12B11 (modified)
Kd: ~1.2 nM

B19: #20m (antibody, V domains shown)
VH: EVQLVESGGGLVKPGGSLRLSCAASGFTFTSYRMHWVRQAPGKGLEWVSSITGGGNYIEYADSVKGRFTISRDNAKNSLDLQMNSLRAEDTAIYYCARDMYGLGSYYSPNYFDPWGQGTLVTVSS
VL: QSVLTQPPSVSGAPGQRVTISCTGSSSNIGAGYDVHWYQQVPGTAPKLLIFGSTNRPSGVPDRFSGSKSGASASLAITGLQTEDEADYYCQSYDRSLSHVFGTGTKVTVLG
notes: Germline-edited (m) form of 3E10, light chain edited; IgG; also called 3E10 (modified)
Kd: ~0.88 nM

B20: 12C11 (antibody, V domains shown)
VH: EVQLVESGGGLVKPGGSLRLSCAASGFTFTSYRMHWVRQAPGKRLEWVSSITGGGNYIEYADSVKGRFTISRDNAKNSLDLQMNSLRAEDTAIYYCARDMYGLGSYYSPNYFDPWGQGTLVTVSS
VL: QSVLTQPPSVSGAPGQRVTISCTGSSSNIGAGYDVHWYQQVPGTAPKLLIFGSTNRPSGVPDRFSGSKSGASASLAITGLQTEDEADYYCQSYDRSLSHVFGTGTKVTVLG
notes: IgG made in Expi293; also called #19; 19
Kd: ~0.72 nM

B21: 10E7 (antibody, V domains shown)
VH: EVQLVESGGGLVKPGGSLRLSCAASGFTFTSYRMHWVRQAPGKGLEWVSSITGGGNYIEYADSVKGRFTISRDNAKNSLDLQMNSLRAEDTAIYYCARDMYGLGSYYSPNYFDSWGQGTLVTVSS
VL: QSVLTQPPSVSGAPGQRVTISCTGSSSNIGAGYDVHWYQQLPGRAPKLLIFANTNRPSGVPDRFSGSKSGASASLAITGLQADDEADYYCQSYDRSLSHVFGTGTKVTVLG
notes: IgG made in Expi293; also called #13; 13
Kd: ~1.73 nM
